How the values were obtained:
Experiment in all cases: cell-based or functional assay
[1] = target: 208-member cross-clade virus panel
[2] = target: Env of HIV isolate 00836-2.5 (clade C) (HIV)
[3] = target: Env of HIV isolate 0330.v4.c3 (clade A) (HIV)
[4] = target: Env of HIV isolate 191821.E6.1 (clade D) (HIV)
[5] = target: Env of HIV isolate 242-14 (clade AG) (HIV)
[6] = target: Env of HIV isolate 3468.v1.c12 (clade AD) (HIV)
[7] = target: Env of HIV isolate 3873.v1.c24 (clade C) (HIV)
[8] = target: Env of HIV isolate 6095.v1.c10 (clade ACD) (HIV)
[9] = target: Env of HIV isolate 620345.c1 (clade AE) (HIV)
[10] = target: Env of HIV isolate 6644.v2.c33 (clade C) (HIV)
[11] = target: Env of HIV isolate 7165.18 (clade B) (HIV)
[12] = target: Env of HIV isolate 89.6.DG (clade B) (HIV)
[13] = target: Env of HIV isolate A07412M1.vrc12 (clade D) (HIV)
[14] = target: Env of HIV isolate ADA.DG (clade B) (HIV)
[15] = target: Env of HIV isolate BG505.W6M.C2 (clade A) (HIV)
[16] = target: Env of HIV isolate BJOX025000.01.1 (clade AE) (HIV)
[17] = target: Env of HIV isolate BJOX028000.10.3 (clade AE) (HIV)
[18] = target: Env of HIV isolate BaL.26 (clade B) (HIV)
[19] = target: Env of HIV isolate C4118.09 (clade AE) (HIV)
[20] = target: Env of HIV isolate CH117.4 (clade BC) (HIV)
[21] = target: Env of HIV isolate CNE20 (clade BC) (HIV)
[22] = target: Env of HIV isolate CNE58 (clade C in Table 7) (HIV)
[23] = target: Env of HIV isolate CNE7 (clade BC) (HIV)
[24] = target: Env of HIV isolate CNE8 (clade AE) (HIV)
[25] = target: Env of HIV isolate DU156.12 (clade C) (HIV)
[26] = target: Env of HIV isolate DU422.01 (clade C) (HIV)
[27] = target: Env of HIV isolate JRFL.JB (clade B) (HIV)
[28] = target: Env of HIV isolate KER2008.12 (clade A) (HIV)
[29] = target: Env of HIV isolate T280-5 (clade AG) (HIV)
[30] = target: Env of HIV isolate TH976.17 (clade AE) (HIV)
[31] = target: Env of HIV isolate UG037.8 (clade A) (HIV)
[32] = target: Env of HIV isolate ZM109.4 (clade C) (HIV)
[33] = target: HIV Env of isolate 0921.v2.c14 (HIV)
[34] = target: HIV Env of isolate 25710-2.43 (HIV)
[35] = target: HIV Env of isolate 3637.v5.c3 (HIV)
[36] = target: HIV Env of isolate 6644.v2.c33 (HIV)
[37] = target: HIV Env of isolate CAP210.E8 (HIV)
[38] = target: HIV Env of isolate CAP256.206.C9 (HIV)
[39] = target: HIV Env of isolate CNE31 (HIV)
[40] = target: HIV Env of isolate UG021.16 (HIV)
[41] = target: HIV Env of isolate ZM176.66 (HIV)
[42] = target: HIV Env of isolate ZM197.7 (HIV)
[43] = target: HIV Env of isolate ZM215.8 (HIV)

B1: ePGT121.15 (ePGT121.15.H6 VH and ePGT121.15.L1 VL) (antibody, V domains shown)
VH: QMQLQESGPGLVKPGETLSLTCSVSGASISSSYWSWLRETPGKGLEWIGYTHHSGDTNYAPSLKSRVHLGLHPSKNQVSLSLTSVTAADTAVYYCARTLHGRRIYGVVAFNEFFTYFYWEVWGKGTQVTVSS
VL: SDISVAPGETVRISCGGESIGSRAVQWYQHRAGQAPKLIIYNNQDRPPGIPERFSGSPDIDFGTTATLTITNVEAGDEATYYCHIWDSRRPTNWVFGGGTTLTVL
- % vs Neutralized, IC50 < 0.01 ug/ml [1]: 49%
- % vs Neutralized, IC50 < 0.1 ug/ml [1]: 63%
- % vs Neutralized, IC50 < 1.0 ug/ml [1]: 70%
- % vs Neutralized, IC50 < 10 ug/ml [1]: 75%
- % vs Neutralized, IC50 < 50 ug/ml [1]: 77%
- % vs Neutralized, IC80 < 0.01 ug/ml [1]: 26.9%
- % vs Neutralized, IC80 < 0.1 ug/ml [1]: 56.2%
- % vs Neutralized, IC80 < 1.0 ug/ml [1]: 63.5%
- % vs Neutralized, IC80 < 10 ug/ml [1]: 70.2%
- % vs Neutralized, IC80 < 50 ug/ml [1]: 72.6%
- Geometric Mean (IC50) [1]: 0.0148 mg/L
- Geometric Mean IC80 [1]: 0.0351 mg/L
- Median IC50 [1]: 0.0055 mg/L
- Median IC80 [1]: 0.015 mg/L
- Total VS Neutralized, IC50 < 0.01 ug/ml (viruses of 208) [1]: 101
- Total VS Neutralized, IC50 < 0.1 ug/ml (viruses of 208) [1]: 130
- Total VS Neutralized, IC50 < 1.0 ug/ml (viruses of 208) [1]: 145
- Total VS Neutralized, IC50 < 10 ug/ml (viruses of 208) [1]: 156
- Total VS Neutralized, IC50 < 50 ug/ml (viruses of 208) [1]: 160
- Total VS Neutralized, IC80 < 0.01 ug/ml (viruses of 208) [1]: 56
- Total VS Neutralized, IC80 < 0.1 ug/ml (viruses of 208) [1]: 117
- Total VS Neutralized, IC80 < 1.0 ug/ml (viruses of 208) [1]: 132
- Total VS Neutralized, IC80 < 10 ug/ml (viruses of 208) [1]: 146
- Total VS Neutralized, IC80 < 50 ug/ml (viruses of 208) [1]: 151
- IC50, pseudovirus neutralization [2]: 2.25 mg/L
- IC50, pseudovirus neutralization [3]: 0.006 mg/L
- IC50, pseudovirus neutralization [4]: 0.249 mg/L
- IC50, pseudovirus neutralization [5]: 42.8 mg/L
- IC50, pseudovirus neutralization [6]: 0.002 mg/L
- IC50, pseudovirus neutralization [7]: 0.004 mg/L
- IC50, pseudovirus neutralization [8]: 0.019 mg/L
- IC50, pseudovirus neutralization [9]: > 50 mg/L
- IC50, pseudovirus neutralization [10]: 0.003 mg/L
- IC50, pseudovirus neutralization [11]: 0.003 mg/L
- IC50, pseudovirus neutralization [12]: 0.002 mg/L
- IC50, pseudovirus neutralization [13]: 0.005 mg/L
- IC50, pseudovirus neutralization [14]: 0.005 mg/L
- IC50, pseudovirus neutralization [15]: 0.066 mg/L
- IC50, pseudovirus neutralization [16]: > 50 mg/L
- IC50, pseudovirus neutralization [17]: 0.363 mg/L
- IC50, pseudovirus neutralization [18]: 0.003 mg/L
- IC50, pseudovirus neutralization [19]: > 50 mg/L
- IC50, pseudovirus neutralization [20]: > 50 mg/L
- IC50, pseudovirus neutralization [21]: 0.003 mg/L
- IC50, pseudovirus neutralization [22]: 0.023 mg/L
- IC50, pseudovirus neutralization [23]: 0.005 mg/L
- IC50, pseudovirus neutralization [24]: > 50 mg/L
- IC50, pseudovirus neutralization [25]: 0.002 mg/L
- IC50, pseudovirus neutralization [26]: 0.01 mg/L
- IC50, pseudovirus neutralization [27]: 0.014 mg/L
- IC50, pseudovirus neutralization [28]: 0.01 mg/L
- IC50, pseudovirus neutralization [29]: 0.004 mg/L
- IC50, pseudovirus neutralization [30]: > 50 mg/L
- IC50, pseudovirus neutralization [31]: 0.004 mg/L
- IC50, pseudovirus neutralization [32]: 3.37 mg/L
- IC80, pseudovirus neutralization [33]: 5.71 mg/L
- IC80, pseudovirus neutralization [34]: 0.021 mg/L
- IC80, pseudovirus neutralization [35]: > 50 mg/L
- IC80, pseudovirus neutralization [36]: 0.008 mg/L
- IC80, pseudovirus neutralization [37]: 0.268 mg/L
- IC80, pseudovirus neutralization [38]: 0.006 mg/L
- IC80, pseudovirus neutralization [39]: 0.147 mg/L
- IC80, pseudovirus neutralization [40]: 0.022 mg/L
- IC80, pseudovirus neutralization [41]: 0.31 mg/L
- IC80, pseudovirus neutralization [42]: > 50 mg/L
- IC80, pseudovirus neutralization [43]: 0.047 mg/L
